For the assay, the target named is FLAG-Tat (p3XFLAG-CMV-Tat, wild type) (HIV-1) (UniProt P04608). Put plainly: cell-based or functional assay.

“HA-IκB-α 72-287 (pCMV4-HA-IκB-α 72-287, expressed in transfected cells) (from UniProt P25963 72-287)” had a translocation of Tat from the nucleus to the cytoplasm (confocal microscopy, HeLa cells) (% of the analyzed cells) of 50.

(Values after US20100093618A1.)
